T1: human CLDN6 (human, UniProt P56747 1-220)
T1 chain: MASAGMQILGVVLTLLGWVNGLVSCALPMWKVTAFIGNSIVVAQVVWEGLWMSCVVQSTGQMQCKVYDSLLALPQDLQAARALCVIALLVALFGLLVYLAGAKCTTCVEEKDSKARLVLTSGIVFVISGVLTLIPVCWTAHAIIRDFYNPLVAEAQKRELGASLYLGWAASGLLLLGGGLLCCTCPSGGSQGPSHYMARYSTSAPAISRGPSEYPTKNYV


Experiments:
human CLDN6 = biological target: T1, human CLDN6; test: flow cytometry cell binding
human CD3 = human CD3 (UniProt P07766 23-207; P04234 22-171; P09693 23-182); test: flow cytometry cell binding
Chain of human CD3 (P07766 23-207, chain 1 of 3): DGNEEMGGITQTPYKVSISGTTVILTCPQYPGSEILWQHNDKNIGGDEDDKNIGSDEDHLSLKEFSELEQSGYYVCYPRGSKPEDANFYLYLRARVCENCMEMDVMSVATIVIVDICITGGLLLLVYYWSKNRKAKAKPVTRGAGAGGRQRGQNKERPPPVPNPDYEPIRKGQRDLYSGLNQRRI
Chain of human CD3 (P04234 22-171, chain 2 of 3): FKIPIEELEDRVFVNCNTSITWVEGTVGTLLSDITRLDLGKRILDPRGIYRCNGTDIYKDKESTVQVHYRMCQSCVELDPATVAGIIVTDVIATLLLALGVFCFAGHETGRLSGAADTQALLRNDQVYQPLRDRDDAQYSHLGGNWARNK
Chain of human CD3 (P09693 23-182, chain 3 of 3): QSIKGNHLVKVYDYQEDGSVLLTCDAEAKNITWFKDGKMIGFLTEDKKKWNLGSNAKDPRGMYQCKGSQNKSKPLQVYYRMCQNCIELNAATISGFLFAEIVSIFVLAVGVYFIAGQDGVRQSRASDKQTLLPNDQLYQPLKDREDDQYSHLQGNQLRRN

Row | Binder | EC50 (human CLDN6) [nM] | EC50 (human CD3) [nM]
1 | IMC-21-1 IgG-(scFv)2 antibody (bispecific antibody) heavy: not shown light: SYELTQPPSVSVSPGQTARITCSAGSGLYGWYQQKPGQAPVLVIYGTNKRPSGIPERFSGSSSGTTVTLTISGVQAEDEADYYCGSADSSTNAGIFGGGTKLTVLGQPKAAPSVTLFPPSSEELQANKATLVCLISDFYPGAVTVAWKADSSPVKAGVETTTPSKQSNNKYAASSYLSLTPEQWKSHRSYSCQVTHEGSTVEKTVAPTECS | 7.2 | 53.6
2 | IMC-16-15 scFv-Fab IgG antibody (bispecific antibody) heavy: EVQLLESGGGLVQPGGSLRLSCAASGFTFSSYAMNWVRQAPGKGLEWVAGISSSGRYTGYADSVKGRFTISRDNSKNTLYLQMNSLRAEDTAVYYCAKSMGSGVSWSGYVATSIDVWGQGTLVTVSSASTKGPSVFPLAPSSKSTSGGTAALGCLVKDYFPEPVTVSWNSGALTSGVHTFPAVLQSSGLYSLSSVVTVPSSSLGTQTYICNVNHKPSNTKVDKKVEPKSCDKTHTCPPCPAPEAAGGPSVFLFPPKPKDTLMISRTPEVTCVVVDVSHEDPEVKFNWYVDGVEVHNAKTKPREEQYNSTYRVVSVLTVLHQDWLNGKEYKCKVSNKALPAPIEKTISKAKGQPREPQVYTLPPSREEMTKNQVSLWCLVKGFYPSDIAVEWESNGQPENNYKTTPPVLDSDGSFFLYSKLTVDKSRWQQGNVFSCSVMHEALHNHYTQKSLSLSPGK light: SYELTQPPSVSVSPGQTARITCSAGSGLYGWYQQKPGQAPVLVIYGTNKRPSGIPERFSGSSSGTTVTLTISGVQAEDEADYYCGSADSSTNAGIFGGGTKLTVLGQPKAAPSVTLFPPSSEELQANKATLVCLISDFYPGAVTVAWKADSSPVKAGVETTTPSKQSNNKYAASSYLSLTPEQWKSHRSYSCQVTHEGSTVEKTVAPTECS scFv: EVQLVESGGGLVQPGGSLRLSCAASGFTFSTYAMNWVRQAPGKGLEWVGRIRSKYNNYATYYADSVKGRFTISRDDSKNTLYLQMNSLRAEDTAVYYCVRHGNFGDSYVSWFAYWGQGTLVTVSSGKPGSGKPGSGKPGSGKPGSQAVVTQEPSLTVSPGGTVTLTCGSSTGAVTTSNYANWVQQKPGKSPRGLIGGTNKRAPGVPARFSGSLLGGKAALTISGAQPEDEADYYCALWYSNHWVFGGGTKLTVLASPKSSDKTHTCPPCPAPEAAGGPSVFLFPPKPKDTLMISRTPEVTCVVVDVSHEDPEVKFNWYVDGVEVHNAKTKPREEQYNSTYRVVSVLTVLHQDWLNGKEYKCKVSNKALPAPIEKTISKAKGQPREPQVYTLPPSREEMTKNQVSLSCAVKGFYPSDIAVEWESNGQPENNYKTTPPVLDSDGSFFLVSKLTVDKSRWQQGNVFSCSVMHEALHNHYTQKSLSLSPGK | 24.1 | 2.62
3 | IMC-2-7 tandem scFv antibody (bispecific antibody) scFv: SYELTQPPSVSVSPGQTARITCSAGSGLYGWYQQKPGQAPVLVIYGTNKRPSGIPERFSGSSSGTTVTLTISGVQAEDEADYYCGSADSSTNAGIFGGGTKLTVLGGGGSGGGGSGGGGSEVQLLESGGGLVQPGGSLRLSCAASGFTFSSYAMNWVRQAPGKGLEWVAGISSSGRYTGYADSVKGRFTISRDNSKNTLYLQMNSLRAEDTAVYYCAKSVGSGVSWSGYVATSLDAWGQGTLVTVSSGGGGSEVQLVESGGGLVQPGGSLRLSCAASGFTFSTYAMNWVRQAPGKGLEWVGRIRSKYNNYATYYADSVKGRFTISRDDSKNTLYLQMNSLRAEDTAVYYCVRHGNFGDSYVSWFAYWGQGTLVTVSSGKPGSGKPGSGKPGSGKPGSQAVVTQEPSLTVSPGGTVTLTCGSSTGAVTTSNYANWVQQKPGKSPRGLIGGTNKRAPGVPARFSGSLLGGKAALTISGAQPEDEADYYCALWYSNHWVFGGGTKLTVL | 40.5 | 7.3
4 | IMC-16-3 scFv-Fab IgG antibody (bispecific antibody) heavy: EVQLLESGGGLVQPGGSLRLSCAASGFTFSSYAMNWVRQAPGKGLEWVAGISSSGRYTGYADSVKGRFTISRDNSKNTLYLQMNSLRAEDTAVYYCAKSVGSGVSWSGYVATSLDAWGQGTLVTVSSASTKGPSVFPLAPSSKSTSGGTAALGCLVKDYFPEPVTVSWNSGALTSGVHTFPAVLQSSGLYSLSSVVTVPSSSLGTQTYICNVNHKPSNTKVDKKVEPKSCDKTHTCPPCPAPEAAGGPSVFLFPPKPKDTLMISRTPEVTCVVVDVSHEDPEVKFNWYVDGVEVHNAKTKPREEQYNSTYRVVSVLTVLHQDWLNGKEYKCKVSNKALPAPIEKTISKAKGQPREPQVYTLPPSREEMTKNQVSLWCLVKGFYPSDIAVEWESNGQPENNYKTTPPVLDSDGSFFLYSKLTVDKSRWQQGNVFSCSVMHEALHNHYTQKSLSLSPGK light: SYELTQPPSVSVSPGQTARITCSAGSGLYGWYQQKPGQAPVLVIYGTNKRPSGIPERFSGSSSGTTVTLTISGVQAEDEADYYCGSADSSTNAGIFGGGTKLTVLGQPKAAPSVTLFPPSSEELQANKATLVCLISDFYPGAVTVAWKADSSPVKAGVETTTPSKQSNNKYAASSYLSLTPEQWKSHRSYSCQVTHEGSTVEKTVAPTECS scFv: EVQLVESGGGLVQPGGSLRLSCAASGFTFSTYAMNWVRQAPGKGLEWVGRIRSKYNNYATYYADSVKGRFTISRDDSKNTLYLQMNSLRAEDTAVYYCVRHGNFGDSYVSWFAYWGQGTLVTVSSGKPGSGKPGSGKPGSGKPGSQAVVTQEPSLTVSPGGTVTLTCGSSTGAVTTSNYANWVQQKPGKSPRGLIGGTNKRAPGVPARFSGSLLGGKAALTISGAQPEDEADYYCALWYSNHWVFGGGTKLTVLASPKSSDKTHTCPPCPAPEAAGGPSVFLFPPKPKDTLMISRTPEVTCVVVDVSHEDPEVKFNWYVDGVEVHNAKTKPREEQYNSTYRVVSVLTVLHQDWLNGKEYKCKVSNKALPAPIEKTISKAKGQPREPQVYTLPPSREEMTKNQVSLSCAVKGFYPSDIAVEWESNGQPENNYKTTPPVLDSDGSFFLVSKLTVDKSRWQQGNVFSCSVMHEALHNHYTQKSLSLSPGK | 13.7 | 3.46
